In PMC9935876, “Structure of the planar cell polarity cadherins Fat4 and Dachsous1” (Nature Communications, 2023):
Substitutions are numbered along the chain they refer to. Names and notes keep the numbering of the source. Values joined by “and” are separate entries in the source; they are usually repeats but may differ in a detail not shown here. Equal values may be shown once. Values belong to the binder of their own block, whether it stands above or below them.

Key:
Conditions in all cases: both partners purified
Human Fat4(EC1-4) [1] = target: T1, Human Fat4(EC1-4) (human, UniProt Q6V0I7 43-475); assay: ITC; MicroCal ITC200; Fat4 constructs 30 µM in the sample cell, Dchs1 constructs 300 µM as titrants; 20 °C; one set of sites
T1 construct: human Fat4, extracellular cadherin domains EC1-EC4, aa43-475; A 3C protease site stands between the protein and the C-terminal BAP-tag and His6; also called WT
T1 sequence: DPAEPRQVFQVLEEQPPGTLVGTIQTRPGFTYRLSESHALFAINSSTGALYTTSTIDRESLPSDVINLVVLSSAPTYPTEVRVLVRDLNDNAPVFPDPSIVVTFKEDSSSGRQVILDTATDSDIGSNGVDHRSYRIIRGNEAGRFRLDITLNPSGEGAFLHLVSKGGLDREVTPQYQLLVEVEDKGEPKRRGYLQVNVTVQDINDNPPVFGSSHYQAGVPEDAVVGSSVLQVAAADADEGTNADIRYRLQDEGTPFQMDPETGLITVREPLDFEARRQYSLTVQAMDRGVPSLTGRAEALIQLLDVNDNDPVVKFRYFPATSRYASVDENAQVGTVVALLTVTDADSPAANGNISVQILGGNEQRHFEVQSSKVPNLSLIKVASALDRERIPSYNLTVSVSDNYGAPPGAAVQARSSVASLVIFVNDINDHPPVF

Human Fat4(EC1-4) R152A = target: T2, Human Fat4(EC1-4) R152A (human, UniProt Q6V0I7 43-475, R152A); assay: as above
T2 construct: human Fat4, EC1-EC4, aa43-475, with R152A in EC2; also called Fat4R152A(EC1-4); Fat4R152A
T2 sequence: T1 sequence with R112A

Human Fat4(EC1-4) F358A = target: T3, Human Fat4(EC1-4) F358A (human, UniProt Q6V0I7 43-475, F358A); assay: as above
T3 construct: human Fat4, EC1-EC4, aa43-475, with F358A in EC4; also called Fat4F358A(EC1-4); Fat4F358A
T3 sequence: T1 sequence with F318A

Human Fat4F358A(EC1-4) = target: T4, Human Fat4F358A(EC1-4) (human, UniProt Q6V0I7 43-475, F358A); assay: ITC; MicroCal ITC200; Fat4 construct 30 µM in the sample cell, Dchs1 construct 300 µM as titrant; 20 °C; fitted with one set of sites; two independent experiments
T4 construct: Fat4, human, EC1-EC4, aa43-475, with F358A in EC4
T4 sequence: T1 sequence with F318A

Human Fat4(EC1-4) [2] = target: T5, Human Fat4(EC1-4) (human, UniProt Q6V0I7 43-475); assay: as above
T5 construct: Fat4, human, EC1-EC4, aa43-475; Tags were cleaved only for the constructs meant for co-crystallisation; nothing is said for ITC; also called Fat4 EC1–EC4
T5 sequence: T1 sequence

Human Fat4(EC1-4) [3] = target: T5, Human Fat4(EC1-4); assay: as above; remark: listed apart in the source

stoichiometry N (Human Fat4(EC1-4) [1]): 1.06 ± 0.0114 sites
stoichiometry N (Human Fat4(EC1-4) R152A): 0.965 ± 0.0359 sites
stoichiometry N (Human Fat4(EC1-4) F358A): 0.915 ± 0.0119 sites
B1: Human Dchs1(EC1-4) (domain or fragment)
chain: DPQAGSLDLQIDEEQPAGTLIGDISAGLPAGTAAPLMYFISAQEGSGVGTDLAIDEHSGVVRTARVLDREQRDRYRFTAVTPDGATVEVTVRVADINDHAPAFPQARAALQVPEHTAFGTRYPLEPARDADAGRLGTQGYALSGDGAGETFRLETRPGPDGTPVPELVVTGELDRENRSHYMLQLEAYDGGSPPRRAQALLDVTLLDINDHAPAFNQSRYHAVVSESLAPGSPVLQVFASDADAGVNGAVTYEINRRQSEGDGPFSIDAHTGLLQLERPLDFEQRRVHELVVQARDGGAHPELGSAFVTVHVRDANDNQPSMTVIFLSADGSPQVSEAAPPGQLVARISVSDPDDGDFAHVNVSLEGGEGHFALSTQDSVIYLVCVARRLDREERDAYNLRVTATDSGSPPLRAEAAFVLHVTDVNDNAPAF
notes: human Dachsous1 (Dchs1), extracellular cadherin domains EC1-EC4, aa43-472; A 3C protease site stands between the protein and the C-terminal BAP-tag and His6; also called Dachsous1; WT

Kd (Human Fat4F358A(EC1-4)): 950 nM and 770 nM
Kd (Human Fat4(EC1-4) [2]): 488 nM and 463 nM
B2: Human Dchs1(EC1-4) (domain or fragment)
chain: B1 chain
notes: Dchs1 (Dachsous1), human, EC1-EC4, aa43-472; also called Dachsous1 EC1–EC4

Kd (Human Fat4(EC1-4) [3]): 1560 nM and 2480 nM
B3: Human Dchs1F79A(EC1-4) (domain or fragment)
chain: B1 chain with F39A
notes: Dchs1 (Dachsous1), human, EC1-EC4, aa43-472, with F79A in EC1
